Test results from publication PMC2705282 (Journal of molecular biology, 2009).

B1: wild-type URO-D module of single-chain URO-D (enzyme, human)
chain: MEANGLGPQGFPELKNDTFLRAAWGEETDYTPVWCMRQAGRYLPEFRETRAAQDFFSTCRSPEACCELTLQPLRRFPLDAAIIFSDILVVPQALGMEVTMVPGKGPSFPEPLREEQDLERLRDPEVVASELGYVFQAITLTRQRLAGRVPLIGFAGAPWTLMTYMVEGGGSSTMAQAKRWLYQRPQASHQLLRILTDALVPYLVGQVVAGAQALQLFESHAGHLGPQLFNKFALPYIRDVAKQVKARLREAGLAPVPMIIFAKDGHFALEELAQAGYEVVGLDWTVAPKKARECVGKTVTLQGNLDPCALYASEEEIGQLVKQMLDDFGPHRYIANLGHGLYPDMDPEHVGAFVDAVHKHSRLLRQN
B2: F217Y URO-D module of single-chain URO-D (enzyme, human)
chain: MEANGLGPQGFPELKNDTFLRAAWGEETDYTPVWCMRQAGRYLPEFRETRAAQDFFSTCRSPEACCELTLQPLRRFPLDAAIIFSDILVVPQALGMEVTMVPGKGPSFPEPLREEQDLERLRDPEVVASELGYVFQAITLTRQRLAGRVPLIGFAGAPWTLMTYMVEGGGSSTMAQAKRWLYQRPQASHQLLRILTDALVPYLVGQVVAGAQALQLYESHAGHLGPQLFNKFALPYIRDVAKQVKARLREAGLAPVPMIIFAKDGHFALEELAQAGYEVVGLDWTVAPKKARECVGKTVTLQGNLDPCALYASEEEIGQLVKQMLDDFGPHRYIANLGHGLYPDMDPEHVGAFVDAVHKHSRLLRQN

Experiments:
[1] = molecular target: B2; assay: crystal structure
[2] = molecular target: B1; assay: crystal structure

binding result [1] | binding result [2] | Binder
binds |  | B1
 | binds | B2
 | binds | Y164G URO-D module of single-chain URO-D (enzyme, human) MEANGLGPQGFPELKNDTFLRAAWGEETDYTPVWCMRQAGRYLPEFRETRAAQDFFSTCRSPEACCELTLQPLRRFPLDAAIIFSDILVVPQALGMEVTMVPGKGPSFPEPLREEQDLERLRDPEVVASELGYVFQAITLTRQRLAGRVPLIGFAGAPWTLMTGMVEGGGSSTMAQAKRWLYQRPQASHQLLRILTDALVPYLVGQVVAGAQALQLFESHAGHLGPQLFNKFALPYIRDVAKQVKARLREAGLAPVPMIIFAKDGHFALEELAQAGYEVVGLDWTVAPKKARECVGKTVTLQGNLDPCALYASEEEIGQLVKQMLDDFGPHRYIANLGHGLYPDMDPEHVGAFVDAVHKHSRLLRQN
